Results on one molecule are retold here after patent US20170306001A1.

In test [1] the target is DL06-HA, full length HA of A/duck/Laos/3295/2006(H5N1) (clade 2.3.4) (influenza A virus A/duck/Laos/3295/2006(H5N1)). Briefly: cell-based or functional assay.
The target in test [2] is native H5 HA from multiple H5N1 clades. The test is described as follows: cell-based or functional assay.

B1: Mouse MAb 9F4 (antibody, V domains shown)
V domain 1: QQSEAELARPGASVKMSCKASGFTLTTFTIHWVKQRPGQGLEWIGYINPRSGYTDYNQKFKDNTTLTVDKSSSTAYMQLSSLTSEDSAVFYCARSYYDYDVFDYWGQGTTLTV
V domain 2: DVQMTQSPSSLSASLGGKVTITCTARQDINKYIAWYQHKPGKGPRLLIHYTSTLQPGIPSRFSGSGSGTDYSFTISNLEPEDIATYYCLQYDNLVTFGGGTK
Take B1: the IC50, entry of HA-pseudotyped lentiviral particles into MDCK cells (luciferase) in test [1] is 0.01 mg/L. The same molecule yielded an IC95, HApp neutralization in test [2] of 0.1 mg/L.
